The values that follow come from CN106749644A.

The target of test [1] is 不同的HCV包膜糖蛋白 (on HCV pseudovirus, HCVpp). In words: cell-based or functional assay.
The target of test [2] is HCV-E2蛋白 (Hepatitis C virus (HCV)). In words: SPR, BiaCore X-100; antibody captured by goat anti-human IgG on CM5 chip, HCV-E2 as analyte. On the technique in general: In SPR one partner is held on a chip, and binding of the other changes the refractive index at the surface.

As a reminder, the Kd is the concentration at which binding is half-saturated. The low end stands for a tighter complex, the high end for a looser complex. Usually koff stands for a measure of how fast the partners let go of each other. What is called kon is a measure of how fast the partners come together. Low values mean slow association, high ones fast association.

B1: 全人源抗HCV的单克隆中和抗体TRN1001 (antibody, V domains shown)
VH: QVQLVQSGAEVKKPGSSVKVSCKVSGDRINNYAINWVRQAPGQGLEWMGRIIGIVGLANYAQKFQGRVTMTADKSTSTGYMELSTLKSDDTAMYYCATDNRILAAAPSHYSYSMDLWGPGTTVTVSS
VL: QSALTQPASVSGSPGQSITISCTGTSSDVGGDNYVSWYQQYTGKAPKVMIYDVSKRPSGVSNRFSGSKSGNTASLTISGLQAEDEADYYCCSYTSDNSYVFGSGTKVIVL
For the molecule B1, in test [1], the Luciferase活性 (荧光值), HCVpp infection of Huh7 cells was 100%. In test [2], the Kd came to 20.3 nM, the koff came out at 0.00011 s⁻¹ and the kon came to 5440 M⁻¹ s⁻¹.
